Measured values reported in article PMC11617674, “The activity of the ribonucleotide monophosphatase UmpH is controlled by interaction with the GlnK signaling protein in Escherichia coli” (The Journal of Biological Chemistry, 2024).

Substrate: O=c1ccn([C@@H]2O[C@H](COP(=O)(O)O)[C@@H](O)[C@H]2O)c(=O)[nH]1
Assay: continuous phosphate release, EnzChek (MESG/purine nucleoside phosphorylase), A360, Michaelis-Menten fit
Assay type: biochemical, Escherichia coli
Details: no GlnK, no effectors, 20 mM Hepes pH 7.4, 50 mM KCl, 5 mM MgCl2, 2 mM NAG, 2 mM DTT, 25 °C

B1: UmpH (Escherichia coli K-12) (protein)
chain: MTIKNVICDIDGVLMHDNVAVPGAAEFLHGIMDKGLPLVLLTNYPSQTGQDLANRFATAGVDVPDSVFYTSAMATADFLRRQEGKKAYVVGEGALIHELYKAGFTITDVNPDFVIVGETRSYNWDMMHKAAYFVANGARFIATNPDTHGRGFYPACGALCAGIEKISGRKPFYVGKPSPWIIRAALNKMQAHSEETVIVGDNLRTDILAGFQAGLETILVLSGVSSLDDIDSMPFRPSWIYPSVAEIDVI
notes: untagged; synthetic umpH gene in pET29a, expressed in E. coli BL21 (λDE3); band approximately 30 kDa
- Km: 278 ± 27 µM
